Data taken from the supplement of paper PMC12667976.
± gives the standard error.

B1: library; numbered along this chain (parent)
chain: MATDAALRRLLRLHRTEIAVAVDSAFPLLHALADHDVVPEDKFQETLHLKEKEGCPQAFHALLSWLLTQDSTAILDFWRVLFKDYNLERYGRLQPILDSFPKDVDLSQPRKGRKPPAVPKALVPPPRLPTKRKASEEARAAAPAALTPRGTASPGSQLKAKPPKKPESSAEQQRLPLGNGIQTMSASVQRAVAMSSGDVPGARGAVEGILIQQVFESGGSKKCIQVGGEFYTPSKFEDSGSGKNKARSSSGPKPLVRAKGAQGAAPGGGEARLGQQGSVPAPLALPSDPQLHQKNEDECAVCRDGGELICCDGCPRAFHLACLSPPLREIPSGTWRCSSCLQATVQEVQPRAEEPRPQEPPVETPLPPGLRSAGEEVRGPPGEPLAGMDTTLVYKHLPAPPSAAPLPGLDSSALHPLLCVGPEGQQNLAPGARCGVCGDGTDVLRCTHCAAAFHWRCHFPAGTSRPGTGLRCRSCSGDVTPAPVEGVLAPSPARLAPGPAKDDTASHEPALHRDDLESLLSEHTFDGILQWAIQSMARPAAPFPS

Variants of: B1
Test: AIRE transcriptional activation functional score (insulin promoter-GFP; nonsense median 0, synonymous median 1) (normalised score); higher = higher AIRE activity (more reporter activation)
Details: with insulin promoter-GFP reporter in HEK293
Experimental: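 Deep mutational scan of full-length human AIRE (codon-optimized cDNA, DT-POPCode NNN libraries over three regions) integrated at a Bxb1 landing pad in HEK293 cells carrying an insulin core promoter-GFP reporter at a Flp-In site. Cells were sorted for the top 10% GFP about 14 days after transfection. Variant frequency log-ratios (select vs non-select, TileSeq) were rescaled so that the nonsense median is 0 and the synonymous median is 1, then averaged over biological replicates.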

AIRE transcriptional activation functional score of substitutions, site by site:
K111: C 1.44 ± 0.27 | H 0.607 ± 0.25 | F 0.696 ± 0.48 | T 0.947 ± 0.58 | W 0.591 ± 0.065 | Y 1.29 ± 0.15 | M -0.763 ± 0.21 | E 0.792 ± 0.35 | Q -0.0716 ± 0.43 | I 1.36 ± 0.14 | L 1.65 ± 0.63 | D -0.0433 ± 0.099 | N 1.36 ± 0.24 | V 1.37 ± 0.51 | S 1.18 ± 0.35 | R 0.805 ± 0.34 | G 0.901 ± 0.57 | A 1.84 ± 0.04
R110: K 1.25 ± 0.57 | G 1.34 ± 0.43 | I 1.21 ± 0.57 | F 0.927 ± 0.37 | Q 0.31 ± 0.32 | V 1.21 ± 0.39 | L 1.44 ± 0.48 | D 2.5 ± 0.21 | M 0.295 ± 0.11 | C 0.426 ± 0.55 | T 0.97 ± 0.15 | N 0.62 ± 0.23 | W 1.5 ± 0.21 | E 1.09 ± 0.46 | S 1.01 ± 0.43 | A 1.41 ± 0.049 | Y 1.61 ± 0.24 | P 0.621 ± 0.078
S107: F 0.789 ± 0.42 | V 1 ± 0.57 | G 0.704 ± 0.72 | H 1.33 ± 0.1 | A 1.04 ± 0.27 | Q 0.12 ± 0.51 | I 1.02 ± 0.21 | R 1.25 ± 0.7 | N 0.000996 ± 0.21 | C 1.12 ± 0.22 | T 0.785 ± 0.34 | P 0.096 ± 0.85 | K 0.75 ± 0.073 | W 1.49 ± 0.037 | M 1.27 ± 0.4 | L 1.05 ± 0.81 | E 0.777 ± 0.38 | Y 0.891 ± 0.32 | D 0.707 ± 0.52
A121: C 1.3 ± 0.16 | V 0.67 ± 0.31 | E 1.35 ± 0.18 | L 1.09 ± 0.22 | N 1.1 ± 0.17 | G 1.4 ± 0.15 | W 1.54 ± 0.14 | D 0.847 ± 0.36 | Y 1.59 ± 0.18 | K 1.21 ± 0.12 | Q 0.141 ± 0.53 | H 0.141 ± 0.31 | T 0.322 ± 0.49 | R 0.922 ± 0.42 | F 1.22 ± 0.13 | M 1.2 ± 0.16 | I 0.906 ± 0.4 | P 0.967 ± 0.48 | S 1.28 ± 0.72
V118: R 0.372 ± 0.4 | S 0.863 ± 0.49 | E 1.08 ± 0.27 | Q 0.675 ± 0.51 | C 1.25 ± 0.13 | M 1.31 ± 0.18 | D 0.403 ± 0.48 | G 0.911 ± 0.38 | L 0.953 ± 0.44 | T 0.667 ± 0.45 | A 1.02 ± 0.72 | N 0.783 ± 0.28 | F 1.01 ± 0.24 | P 1.47 ± 0.62 | Y 1.42 ± 0.34 | H 1.74 ± 0.26 | K 0.143 ± 0.23 | I 1.01 ± 0.14 | W 1.13 ± 0.21
Q108: D 2.03 ± 0.31 | W 0.796 ± 0.087 | S 0.618 ± 0.61 | A 0.176 ± 0.28 | N 0.625 ± 0.28 | K 0.479 ± 0.44 | R 0.951 ± 0.67 | L 0.0593 ± 0.35 | V 0.8 ± 0.33 | E 1.66 ± 0.33 | H -0.231 ± 0.16 | F 0.53 ± 0.066 | I -0.272 ± 0.29 | C 0.53 ± 0.28 | T 1.35 ± 0.6 | P 0.669 ± 0.36 | M 2.4 ± 0.11 | G 0.482 ± 0.68 | Y 1.24 ± 0.12
P115: C 0.977 ± 0.18 | R 0.784 ± 0.41 | K -0.166 ± 0.74 | A 0.798 ± 0.66 | D 0.0469 ± 0.41 | I 0.466 ± 0.77 | M 0.979 ± 0.15 | F 1.5 ± 0.58 | E 0.792 ± 0.58 | G 0.828 ± 0.45 | V 1.21 ± 0.51 | T 0.525 ± 0.52 | Q 1.01 ± 0.35 | L 1.2 ± 0.48 | W 0.278 ± 0.1 | H 1.03 ± 0.71 | N 1.02 ± 0.11 | S 1.58 ± 0.71 | Y 0.917 ± 0.29
A117: N 0.792 ± 0.33 | Q 1.44 ± 1 | D 0.179 ± 0.29 | G 1.22 ± 0.26 | C 1.1 ± 0.64 | Y 1.76 ± 0.24 | V 0.34 ± 0.65 | W 1.4 ± 0.096 | H 1.22 ± 0.48 | L 1.13 ± 0.4 | R 0.501 ± 0.51 | M 0.838 ± 0.066 | K 0.457 ± 0.24 | P 0.913 ± 0.48 | F 1.04 ± 0.38 | I 0.777 ± 0.28 | T 1.16 ± 0.36 | S 0.692 ± 0.59 | E 1.03 ± 0.14
R113: V 0.537 ± 0.49 | F 1.12 ± 0.14 | K 1.18 ± 0.31 | Q 1.18 ± 0.28 | D 0.648 ± 0.2 | A 0.951 ± 0.44 | Y 0.831 ± 0.23 | W 0.668 ± 0.047 | M 0.565 ± 0.038 | C 1.3 ± 0.1 | L 0.951 ± 0.3 | S 1.02 ± 0.33 | I 1.46 ± 0.3 | E 0.975 ± 0.22 | H 1.08 ± 0.67 | T 0.935 ± 0.28 | G 0.801 ± 0.29 | P 0.537 ± 0.78 | N 1.68 ± 0.77
P116: M 1.1 ± 0.35 | T 0.481 ± 0.99 | W 1.13 ± 0.19 | K 0.772 ± 0.26 | F 1.18 ± 0.075 | D 0.468 ± 0.33 | G 0.577 ± 0.51 | Y 1.17 ± 0.12 | C 1.36 ± 0.37 | V 0.906 ± 0.43 | Q 1.41 ± 0.49 | H 1.15 ± 0.41 | L 1.07 ± 0.43 | I 1.36 ± 0.24 | R 0.38 ± 0.45 | N 2.06 ± 0.3 | S 1.12 ± 0.27 | E 0.895 ± 0.69 | A 0.756 ± 0.5
L122: P 0.586 ± 0.2 | I 0.612 ± 0.24 | T 0.686 ± 0.11 | F 1.32 ± 0.15 | C 1.17 ± 0.21 | V 0.859 ± 0.41 | A 0.747 ± 0.24 | Q 0.272 ± 0.36 | N 0.335 ± 0.67 | R 0.83 ± 0.43 | H 0.431 ± 0.75 | E 0.827 ± 0.24 | S 1.44 ± 0.47 | K 0.401 ± 0.17 | D 1.44 ± 0.14 | G 1.29 ± 0.35 | M 1.1 ± 0.05 | Y 1.45 ± 0.31 | W 0.871 ± 0.048
P119: Y 1.63 ± 0.1 | D 0.86 ± 0.28 | L 0.904 ± 0.3 | A 1.03 ± 0.56 | Q 1.02 ± 0.37 | C 1.04 ± 0.56 | T 1.59 ± 0.55 | H 1.17 ± 0.41 | R 0.495 ± 0.34 | E 1.37 ± 0.17 | K 1.36 ± 0.051 | I 1.52 ± 0.17 | G 0.741 ± 0.48 | W 1.58 ± 0.045 | F 1.39 ± 0.14 | S 0.765 ± 0.48 | N 1.04 ± 0.46 | M 0.545 ± 0.12 | V 0.878 ± 0.6
P109: I 0.666 ± 0.43 | R 0.676 ± 0.53 | N -1.94 ± 0.83 | C 0.656 ± 0.81 | D 0.988 ± 0.12 | E 0.161 ± 0.073 | M 2.55 ± 0.077 | T 1.54 ± 0.29 | Q 0.797 ± 0.078 | H 1.28 ± 0.19 | S 1.1 ± 0.75 | L 0.821 ± 0.42 | V 0.635 ± 0.4 | K 0.0515 ± 0.12 | Y 0.732 ± 0.35 | G 0.279 ± 0.24 | A 0.959 ± 0.96 | W 0.0143 ± 0.096 | F 1.16 ± 0.068
V123: I 1.17 ± 0.21 | T 0.905 ± 0.51 | D 1.11 ± 0.33 | A 0.886 ± 0.47 | H 1.19 ± 0.59 | K 1.26 ± 0.2 | N 1.03 ± 0.1 | E 0.862 ± 0.25 | C 1.27 ± 0.17 | Q 1.31 ± 0.14 | S 0.751 ± 0.44 | F 1.33 ± 0.095 | P 0.742 ± 0.58 | L 1.28 ± 0.27 | R 0.872 ± 0.33 | M 1.72 ± 0.061 | G 1.3 ± 0.27 | Y 1.43 ± 0.12
G112: D 1.13 ± 0.21 | H 0.912 ± 0.48 | L 1.31 ± 0.58 | M 0.488 ± 0.49 | I 1.08 ± 0.67 | E 1.23 ± 0.084 | K 0.268 ± 0.48 | R 0.278 ± 0.5 | V 0.878 ± 0.38 | T 1.31 ± 0.75 | Q 1.37 ± 0.17 | S 0.851 ± 0.57 | A 1.49 ± 0.71 | P 1.12 ± 0.67 | C 0.924 ± 0.17 | F 1.03 ± 0.43 | N 0.726 ± 0.29 | Y 0.893 ± 0.066 | W 1.45 ± 0.18
K120: H 0.932 ± 0.7 | Q 0.232 ± 0.33 | C 1.2 ± 0.21 | P 1.21 ± 0.39 | W 1.43 ± 0.041 | G 1.12 ± 0.34 | Y 1.34 ± 0.37 | V 1.01 ± 0.28 | R 1.21 ± 0.41 | F 0.998 ± 0.34 | M 1.31 ± 0.077 | L 1.13 ± 0.29 | T 1.79 ± 0.48 | E 0.943 ± 0.27 | S 1.21 ± 0.44 | D 0.677 ± 0.3 | N 1.29 ± 0.21 | A 0.814 ± 0.64 | I 1.2 ± 0.15
L106: R 0.112 ± 0.35 | P -1.47 ± 0.87 | Q -0.722 ± 0.74 | V 0.581 ± 0.31 | T 0.979 ± 0.18 | M 0.0877 ± 0.2 | S -1.04 ± 1.1 | W 0.739 ± 0.14 | K 0.511 ± 0.29 | I -1.62 ± 0.095 | Y 1.27 ± 0.37 | G -0.428 ± 0.48 | N 0.233 ± 0.22
K114: T 1.19 ± 0.25 | Y 1.51 ± 0.4 | S 0.787 ± 0.21 | I 1.03 ± 0.35 | E 1.46 ± 0.18 | R 0.793 ± 0.29 | P 0.1 ± 0.84 | D 0.131 ± 0.23 | N 0.632 ± 0.21 | V 0.691 ± 0.86 | G 0.427 ± 0.71 | W 1.32 ± 0.14 | C 1.06 ± 0.095 | M 0.913 ± 0.028 | A -0.00452 ± 0.042 | H 0.207 ± 0.11 | Q 0.342 ± 0.43 | F 0.817 ± 0.29 | L 1.03 ± 0.43
P124: A 0.614 ± 0.46
